Test results taken from PMC4264766, “Purification, Cloning, Characterization, and N-Glycosylation Analysis of a Novel β-Fructosidase from Aspergillus oryzae FS4 Synthesizing Levan- and Neolevan-Type Fructooligosaccharides” (PLoS ONE, 2014).

Substrate: OC[C@H]1O[C@@](CO)(O[C@H]2O[C@H](CO)[C@@H](O)[C@H](O)[C@H]2O)[C@@H](O)[C@@H]1O
Assay: initial rates, glucose release by glucose assay kit, confirmed by HPLC; Michaelis-Menten fit
Format: biochemical, Aspergillus oryzae
Settings: total activity (glucose release), 55°C, potassium phosphate buffer, 0.005–0.5 M sucrose
Excerpt: initial rates, glucose release by glucose assay kit, confirmed by HPLC; Michaelis-Menten fit on N.BfrA (native β-fructosidase BfrA)

B1: N.BfrA (native β-fructosidase BfrA) (Aspergillus oryzae) (protein)
chain: IDYNAAPPNLSTLANGSLYDTWRPRAHILPPNGRIGDPCGHYTDPDTGLFHVGFLYNGSGIAGATTDDMVRFRDLNPNGSQFIMPGGKNDPVAVFDGSVIPKGIDDKPTLLYTSVTSLPIHWSIPYNPGAETQSLAVTSNGGRNFTKLDRPPVIPLPPSDSDVTAFRDPYAFQSPELDAAADSAPGTWYTAISGGVHEDGPGQFLYRQDQKEMSLESWEYLGLWWQEKVNTTWGNGDWAGGWGFNFETGNVFGLNEEGYSVDGEMFMTLGTEGSGTPIVSQVSSIHDMLWAAGNVSNNGNVTFTPTMAGVFDWGASGYAAAGHILPATSQVSTKSGAPDRFISFVWLTGDLFEQAKGYPTSQQNWVGTLLLPRELHIKTISNVVDNELAREEGSSWRVERGQSGIELKTLGIDIARETREALMSGPKITEPERTSKEAGLVPFQVSPTTKFHVLTAQLSFPRSARNSDLQAGFQVLSSDLESTTIYYQFSNESIIVDRSNTSAAAKTTNGIVSTNESGRLRLFDLQGDAQEIETLDLTVVVDNSVLEIYANGRFALSTWARSWYKNSTDIKFYHNGAGEVTFSNVTVSEGLFEAWPERV
notes: native, purified from A. oryzae FS4 mycelia; N-glycosylated; 95 kDa by SDS-PAGE, monomer; CDS 1860 bp; mature 65298 Da calculated; 40 kDa contaminant band
Km: 37.19 ± 5.28 mM
Vmax: 1.28e+08 µM/min/mg
kcat: 10000 ± 390 s⁻¹
kcat/Km: 269000 ± 39700 M⁻¹ s⁻¹
